# Assay results reported in the supplement of paper PMC10567573.
# B1: POLD2 addP (peptide)
# chain: CQPISFSGFGAEDDDLGGLGLGPP
# B2: SNF8 addP (peptide)
# chain: LPALFTDLYSQEITAEEAREALPP
# B3: PSMB5 addP (peptide)
# chain: DGWIRVSSDNVADLHEKYSGSTPP
# Test: protein stability index of a GFP-peptide fusion (GPS, HEK-293T) (PSI 1-6); higher = more stable
# Conditions: c terminus: native
# 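Further: lentivirally expressed fusion library, cells FACS-sorted into six equal-sized GFP/DsRed ratio bins, PSI computed from sequencing read fractions per bin weighted by bin number.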
protein,measurement,setting,value
B1,protein stability index,parent: NP_006221.1,4.45
B2,protein stability index,parent: NP_009172.2,2.03
B3,protein stability index,parent: NP_002788.1,4.78
